Assay results reported in patent publication US20090300802A1 (WASHINGTON STATE UNIVERSITY RESEARCH FOUNDATION, published 2009).
Each block holds one molecule with its values, some of them ahead of it. No end group written: not given here. *: point of attachment. APDP = N-(4-[p-azidosalicylamido]butyl)-3'-(2'-pyridyldithio)propionamide, photoaffinity cross-linker coupled via disulfide to Cys, [N-]=[N+]=Nc1ccc(C(=O)NCCCCNC(=O)CCS*)c(O)c1; 125I = [125I]*

Legend:
OsPEPR1 (rice) = assay: cell-based or functional assay
AtPEPR1 [1] = biological target: T1, AtPEPR1 (Arabidopsis thaliana, UniProt Q9SSL9 29-1123, glycosylated (about 180 kD, about 150 kD after PNGase F)); assay: cell-based or functional assay
T1 sequence: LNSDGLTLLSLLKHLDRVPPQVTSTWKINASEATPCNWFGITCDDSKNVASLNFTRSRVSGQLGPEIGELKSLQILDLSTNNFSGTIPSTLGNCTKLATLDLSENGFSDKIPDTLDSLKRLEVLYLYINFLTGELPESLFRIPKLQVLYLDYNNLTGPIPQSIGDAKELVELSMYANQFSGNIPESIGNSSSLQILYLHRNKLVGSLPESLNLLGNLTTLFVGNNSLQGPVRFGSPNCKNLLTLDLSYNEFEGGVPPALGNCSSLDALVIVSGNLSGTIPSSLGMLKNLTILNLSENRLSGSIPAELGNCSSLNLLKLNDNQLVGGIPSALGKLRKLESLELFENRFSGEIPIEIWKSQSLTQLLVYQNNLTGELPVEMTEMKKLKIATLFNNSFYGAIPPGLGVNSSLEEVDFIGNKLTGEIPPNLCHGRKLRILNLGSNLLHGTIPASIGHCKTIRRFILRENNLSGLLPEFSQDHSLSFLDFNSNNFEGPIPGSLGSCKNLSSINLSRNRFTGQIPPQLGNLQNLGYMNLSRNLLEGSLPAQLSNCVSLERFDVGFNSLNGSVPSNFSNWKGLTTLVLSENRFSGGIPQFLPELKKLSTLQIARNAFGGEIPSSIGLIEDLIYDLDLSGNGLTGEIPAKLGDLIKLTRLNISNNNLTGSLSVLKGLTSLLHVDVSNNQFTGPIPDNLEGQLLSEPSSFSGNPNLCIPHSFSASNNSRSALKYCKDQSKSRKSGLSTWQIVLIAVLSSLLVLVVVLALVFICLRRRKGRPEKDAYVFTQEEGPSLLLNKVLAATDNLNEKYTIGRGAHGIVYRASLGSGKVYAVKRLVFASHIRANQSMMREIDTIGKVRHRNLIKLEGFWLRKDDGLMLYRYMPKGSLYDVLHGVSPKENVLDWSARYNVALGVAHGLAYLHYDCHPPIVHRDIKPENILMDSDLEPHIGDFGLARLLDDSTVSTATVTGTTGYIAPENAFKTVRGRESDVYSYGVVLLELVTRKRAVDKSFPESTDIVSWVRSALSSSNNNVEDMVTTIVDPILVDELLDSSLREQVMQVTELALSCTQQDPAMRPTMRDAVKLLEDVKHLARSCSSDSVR

AtPEPR2 [2] = biological target: T2, AtPEPR2 (Arabidopsis thaliana, UniProt Q9FZ59 27-1088); assay: sub-heading of Example 9, supported by alkalinization and photoaffinity labeling of transgenic tobacco cells
T2 construct: Coding region expressed under the CaMV 35S promoter in tobacco suspension-cultured cells; also called second AtPep1 receptor; At1g17750
T2 sequence: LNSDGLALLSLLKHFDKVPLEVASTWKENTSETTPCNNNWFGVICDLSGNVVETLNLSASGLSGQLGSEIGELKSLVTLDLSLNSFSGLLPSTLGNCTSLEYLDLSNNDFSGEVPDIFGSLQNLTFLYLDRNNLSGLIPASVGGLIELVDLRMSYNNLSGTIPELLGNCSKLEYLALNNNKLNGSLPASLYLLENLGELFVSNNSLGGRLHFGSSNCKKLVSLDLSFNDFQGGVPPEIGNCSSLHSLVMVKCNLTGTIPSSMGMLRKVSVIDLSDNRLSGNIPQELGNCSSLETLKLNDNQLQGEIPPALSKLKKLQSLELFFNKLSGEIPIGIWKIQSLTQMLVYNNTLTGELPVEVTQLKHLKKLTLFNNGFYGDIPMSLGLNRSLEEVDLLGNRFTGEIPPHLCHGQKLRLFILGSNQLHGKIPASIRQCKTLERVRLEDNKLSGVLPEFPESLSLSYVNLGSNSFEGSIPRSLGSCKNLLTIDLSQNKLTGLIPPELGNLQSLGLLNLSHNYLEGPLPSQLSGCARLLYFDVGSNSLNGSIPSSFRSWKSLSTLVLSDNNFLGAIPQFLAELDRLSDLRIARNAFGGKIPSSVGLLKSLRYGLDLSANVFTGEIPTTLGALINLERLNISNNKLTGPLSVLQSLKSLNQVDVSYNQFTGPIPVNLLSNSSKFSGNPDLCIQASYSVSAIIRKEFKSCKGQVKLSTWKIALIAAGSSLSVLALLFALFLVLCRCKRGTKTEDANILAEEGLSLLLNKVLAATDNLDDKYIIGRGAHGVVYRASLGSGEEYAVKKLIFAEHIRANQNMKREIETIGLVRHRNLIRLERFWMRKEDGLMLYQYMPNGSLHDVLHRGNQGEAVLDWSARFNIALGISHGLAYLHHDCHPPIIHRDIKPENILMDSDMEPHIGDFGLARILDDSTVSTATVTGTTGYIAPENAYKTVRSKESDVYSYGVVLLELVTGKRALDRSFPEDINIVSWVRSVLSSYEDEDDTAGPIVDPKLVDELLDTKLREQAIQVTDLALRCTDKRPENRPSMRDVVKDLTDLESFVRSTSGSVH
Method: To clarify whether AtPEPR2 binds to AtPep1, the AtPEPR2 coding region was fused to the CaMV 35S promoter and introduced into tobacco suspension-cultured cells by Agrobacterium. Tobacco cells expressing AtPEPR1 and GUS genes were also created as positive and negative controls, respectively. […] These transgenic lines were analyzed for alkalinizing activity as previously described (Pearce et al., Proc. Natl. Acad. Sci. USA 98, 12843-12847, 2001). […] The level of response to AtPep1 for the AtPEPR2-expressing cells was similar to that of AtPEPR1-expressing cells and to Arabidopsis cells (Yamaguchi et al., Proc. Natl. Acad. Sci. USA 103: 10104-10109, 2006, Huffaker et al., Proc. Natl. Acad. Sci. USA 103: 10098-10103, 2006), with a maximal change of 1-1.2 pH units and a half-maximal peptide activity of 0.25 nM.
(§1) For final confirmation, a photoaffinity-labeling experiment was performed using the transgenic tobacco cells. […] After separation of extracted proteins by SDS-PAGE, the labeled proteins were detected on X-ray film. […] Since no specific labeling was detected in wild type tobacco and GUS expressing cells, the proteins labeled specifically by ¹²⁵I₁-azido-Cys-AtPep1 in AtPEPR1 and AtPEPR2 expressing cells were products from the AtPEPR1 and AtPEPR2 genes.

AtPEPR1 [3] = biological target: T1, AtPEPR1; assay: saturation binding of radiolabeled peptide to Arabidopsis suspension cultured cells, Scatchard analysis
Source text: An analog of AtPep1 was synthesized with a Tyr residue attached to its N-terminus and radiolabeled with ¹²⁵I to quantify binding. The Tyr analog and mono- and di-iodo-Tyr-AtPep1 analogs were separated by HPLC, and the concentration-dependent activities of AtPep1 and these analogs where tested in the alkalinization assay. […] The mono-iodinated Tyr-AtPep1 comprised about 95% of the iodinated proteins and was employed for binding studies.

AtPEPR1 [4] = biological target: T1, AtPEPR1; assay: photoaffinity labeling (0.25 nM) of transgenic tobacco cells expressing AtPEPR1, SDS-PAGE and X-ray film
Method: (§2) This wash was repeated twice. The cells were resuspended in 1 mL MS medium and irradiated with UV-B for 10 min on ice to photoactivate the azido group to effect the crosslinking. The cells were washed with 1 mL MS medium, centrifuged as above, and resuspended in 400 μL of 5% SDS. The cells were disrupted by boiling for 30 min, and the insoluble debris was removed by centrifugation at 10,000×g. […] After centrifugation at 10,000×g, the pellet was recovered and dissolved in 100 μL of Laemmli sample buffer containing 5% SDS, boiled for 10 min, and separated using 8% SDS-PAGE. The gels were dried and exposed to X-ray film for 50 hr to visualize labeled proteins. In competition assays, unlabeled AtPep1 and suramin were added to the cells and incubated for 10 min before adding ¹²⁵I-azido-Cys-AtPep1. The same procedures described above were employed to detect labeled proteins.
as §1

AtPEPR2 [5] = biological target: T2, AtPEPR2; assay: photoaffinity labeling (0.25 nM) of transgenic tobacco cells expressing AtPEPR2, SDS-PAGE and X-ray film
Method: as §2, §1

B1: AtPep5 (peptide)
peptide: GLPGKKNVLKKSRESSGKPGGTN
change in medium pH of transgenic tobacco cells expressing AtPEPR1 at 2.5 nM peptide (AtPEPR1 [1]): ≤ 0.6 pH units
half-maximal activity, alkalinization of tobacco cells expressing AtPEPR1 (AtPEPR1 [1]): 0.25 nM
maximal change of medium pH, tobacco cells expressing AtPEPR1 (AtPEPR1 [1]): 1.2 pH units

B2: AtPep6 (peptide)
peptide: ITAVLRRRPRPPPYSSGRPGQNN
change in medium pH of transgenic tobacco cells expressing AtPEPR1 at 2.5 nM peptide (AtPEPR1 [1]): ≤ 0.6 pH units
half-maximal activity, alkalinization of tobacco cells expressing AtPEPR1 (AtPEPR1 [1]): 0.25 nM
maximal change of medium pH, tobacco cells expressing AtPEPR1 (AtPEPR1 [1]): 1.2 pH units

B4: AtPep2 (peptide)
peptide: SLNVMRKGIRKQPVSSGKRGGVN
change in medium pH of transgenic tobacco cells expressing AtPEPR1 at 2.5 nM peptide (AtPEPR1 [1]): ≤ 0.6 pH units
half-maximal activity, alkalinization of tobacco cells expressing AtPEPR1 (AtPEPR1 [1]): 0.25 nM
maximal change of medium pH, tobacco cells expressing AtPEPR1 (AtPEPR1 [1]): 1.2 pH units

B5: AtPep1 (peptide)
peptide: ATKVKAKQRGKEKVSSGRPGQHN
notes: 23 amino acid peptide, chemically synthesized, not post-translationally modified; also called Arabidopsis Peptide 1; native AtPep1
half-maximal activity, alkalinization of tobacco cells expressing AtPEPR1 (AtPEPR1 [1]): 0.25 nM
maximal change of medium pH, tobacco cells expressing AtPEPR1 (AtPEPR1 [1]): 1.2 pH units
binding result (AtPEPR2 [2]): binds

B6: AtPep4 (peptide)
peptide: EIKARGKNKTKPTPSSGKGGKHN
half-maximal activity, alkalinization of tobacco cells expressing AtPEPR1 (AtPEPR1 [1]): 2.5 nM

B7: 125I1-Tyr-AtPep1 (peptide)
peptide: Y(125I)ATKVKAKQRGKEKVSSGRPGQHN
notes: also called mono-iodinated Tyr-AtPep1
Kd (AtPEPR1 [3]): 0.25 nM

The remaining lines, values ahead:

half-maximal activity, alkalinization of tobacco cells expressing OsPEPR1 (OsPEPR1 (rice)): 0.25 nM
medium pH increase, tobacco cells expressing OsPEPR1 (OsPEPR1 (rice)): 1.2 pH unit
Molecule: ZmPep4a (peptide)

half-maximal activity, alkalinization of tobacco cells expressing OsPEPR1 (OsPEPR1 (rice)): 0.25 nM
medium pH increase, tobacco cells expressing OsPEPR1 (OsPEPR1 (rice)): 1.2 pH unit
Molecule: OsPep3a (peptide)

half-maximal activity, alkalinization of tobacco cells expressing AtPEPR1 (AtPEPR1 [1]): 2.5 nM
B3: AtPep7 (peptide)
peptide: VSGNVAARKGKQQTSSGKGGGTN

binding result (AtPEPR1 [4]): binds
binding result (AtPEPR2 [5]): binds
B8: 125I-azido-Cys-AtPep1 (peptide)
peptide: C(APDP)ATKVKAKQRGKEKVSSGRPGQHN
modifications: also: mono-iodinated with 125I, site not given here
notes: also called 125I1-azido-Cys-AtPep1
